Among the data in US20260015399A1 (Boehringer Ingelheim, published 2026) are Ki values, retold here.

*1 amine or outer side, *2 acyl side, *3 side chain or, on linkers, in order; H or OH if unused. Side-chain parts run from the residue outwards. The star is where a group is joined. C18 diacid = O=C(O)CCCCCCCCCCCCCCCCC(=O)*; γGlu = O=C(O)[C@H](CCC(=O)[*:2])N[*:1]; Isovaleryl = CC(C)CC(=O)*; Ahx = NCCCCCC(=O)O

The target of this assay is T1, human NPY2 receptor (human, UniProt P49146 1-381).
T1 construct: whole, on cells; also called hNPY2-R; hNPY2R
T1 sequence (looked up): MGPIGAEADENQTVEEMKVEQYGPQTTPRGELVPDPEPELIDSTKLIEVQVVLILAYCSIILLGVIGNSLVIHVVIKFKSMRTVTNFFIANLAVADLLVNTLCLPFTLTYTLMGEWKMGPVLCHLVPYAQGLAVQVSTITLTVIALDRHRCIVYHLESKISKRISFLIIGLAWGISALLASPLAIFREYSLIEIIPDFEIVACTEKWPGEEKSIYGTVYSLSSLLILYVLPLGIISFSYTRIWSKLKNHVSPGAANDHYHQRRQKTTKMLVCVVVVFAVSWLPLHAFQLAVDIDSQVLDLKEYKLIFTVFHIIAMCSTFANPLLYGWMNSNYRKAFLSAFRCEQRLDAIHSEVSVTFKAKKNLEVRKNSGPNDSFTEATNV
Kind of assay: RLB: displacement of 125I-PYY(1-36) from hNPY2R membranes.

Broadly, the Ki is the dissociation constant of the complex between target and ligand, obtained from inhibition or displacement. High values mean a looser hold on the target, low ones a stronger hold on the target.

B1: Compound 107 (peptide)
peptide: Isovaleryl-APEK([Ahx-γGlu-C18 diacid])PEEDAEPEETQRYYVSLRHYYNWLTRQRY-NH2
SMILES: CC(C)CC(=O)N[C@@H](C)C(=O)N1CCC[C@H]1C(=O)N[C@@H](CCC(=O)O)C(=O)N[C@@H](CCCCNC(=O)CCCCCNC(=O)CC[C@H](NC(=O)CCCCCCCCCCCCCCCCC(=O)O)C(=O)O)C(=O)N1CCC[C@H]1C(=O)N[C@@H](CCC(=O)O)C(=O)N[C@@H](CCC(=O)O)C(=O)N[C@@H](CC(=O)O)C(=O)N[C@@H](C)C(=O)N[C@@H](CCC(=O)O)C(=O)N1CCC[C@H]1C(=O)N[C@@H](CCC(=O)O)C(=O)N[C@@H](CCC(=O)O)C(=O)N[C@H](C(=O)N[C@@H](CCC(N)=O)C(=O)N[C@@H](CCCNC(=N)N)C(=O)N[C@@H](Cc1ccc(O)cc1)C(=O)N[C@@H](Cc1ccc(O)cc1)C(=O)N[C@H](C(=O)N[C@@H](CO)C(=O)N[C@@H](CC(C)C)C(=O)N[C@@H](CCCNC(=N)N)C(=O)N[C@@H](Cc1c[nH]cn1)C(=O)N[C@@H](Cc1ccc(O)cc1)C(=O)N[C@@H](Cc1ccc(O)cc1)C(=O)N[C@@H](CC(N)=O)C(=O)N[C@@H](Cc1c[nH]c2ccccc12)C(=O)N[C@@H](CC(C)C)C(=O)N[C@H](C(=O)N[C@@H](CCCNC(=N)N)C(=O)N[C@@H](CCC(N)=O)C(=O)N[C@@H](CCCNC(=N)N)C(=O)N[C@@H](Cc1ccc(O)cc1)C(N)=O)[C@@H](C)O)C(C)C)[C@@H](C)O
Turning to B1, the affinity, expressed as Ki, was 5.13 nM.

B2: Compound 108 (peptide)
peptide: Isovaleryl-APEK([Ahx-γGlu-C18 diacid])PEADASEEELQRYYVSLRHYYNWLTRQRY-NH2
SMILES: CC(C)CC(=O)N[C@@H](C)C(=O)N1CCC[C@H]1C(=O)N[C@@H](CCC(=O)O)C(=O)N[C@@H](CCCCNC(=O)CCCCCNC(=O)CC[C@H](NC(=O)CCCCCCCCCCCCCCCCC(=O)O)C(=O)O)C(=O)N1CCC[C@H]1C(=O)N[C@@H](CCC(=O)O)C(=O)N[C@@H](C)C(=O)N[C@@H](CC(=O)O)C(=O)N[C@@H](C)C(=O)N[C@@H](CO)C(=O)N[C@@H](CCC(=O)O)C(=O)N[C@@H](CCC(=O)O)C(=O)N[C@@H](CCC(=O)O)C(=O)N[C@@H](CC(C)C)C(=O)N[C@@H](CCC(N)=O)C(=O)N[C@@H](CCCNC(=N)N)C(=O)N[C@@H](Cc1ccc(O)cc1)C(=O)N[C@@H](Cc1ccc(O)cc1)C(=O)N[C@H](C(=O)N[C@@H](CO)C(=O)N[C@@H](CC(C)C)C(=O)N[C@@H](CCCNC(=N)N)C(=O)N[C@@H](Cc1c[nH]cn1)C(=O)N[C@@H](Cc1ccc(O)cc1)C(=O)N[C@@H](Cc1ccc(O)cc1)C(=O)N[C@@H](CC(N)=O)C(=O)N[C@@H](Cc1c[nH]c2ccccc12)C(=O)N[C@@H](CC(C)C)C(=O)N[C@H](C(=O)N[C@@H](CCCNC(=N)N)C(=O)N[C@@H](CCC(N)=O)C(=O)N[C@@H](CCCNC(=N)N)C(=O)N[C@@H](Cc1ccc(O)cc1)C(N)=O)[C@@H](C)O)C(C)C
B2 displayed a Ki of 2.77 nM.
